# Source: patent publication US20260250421A1 (BIOCYTOGEN PHARMACEUTICALS BEIJING, published 2026)
# T1: human PTK7 on human cancer cell lines (human, UniProt Q13308 31-1070)
# T1 construct: Endogenous PTK7 of human tumour cell lines; also called PTK7 on A-431, NCI-H520, NCI-N87, SK-OV-3, BT-20, HCC1954, NCI-H226, NCI-H358, HCT116, PC-3, NCI-H292, NCI-H1975 cells
# T1 sequence: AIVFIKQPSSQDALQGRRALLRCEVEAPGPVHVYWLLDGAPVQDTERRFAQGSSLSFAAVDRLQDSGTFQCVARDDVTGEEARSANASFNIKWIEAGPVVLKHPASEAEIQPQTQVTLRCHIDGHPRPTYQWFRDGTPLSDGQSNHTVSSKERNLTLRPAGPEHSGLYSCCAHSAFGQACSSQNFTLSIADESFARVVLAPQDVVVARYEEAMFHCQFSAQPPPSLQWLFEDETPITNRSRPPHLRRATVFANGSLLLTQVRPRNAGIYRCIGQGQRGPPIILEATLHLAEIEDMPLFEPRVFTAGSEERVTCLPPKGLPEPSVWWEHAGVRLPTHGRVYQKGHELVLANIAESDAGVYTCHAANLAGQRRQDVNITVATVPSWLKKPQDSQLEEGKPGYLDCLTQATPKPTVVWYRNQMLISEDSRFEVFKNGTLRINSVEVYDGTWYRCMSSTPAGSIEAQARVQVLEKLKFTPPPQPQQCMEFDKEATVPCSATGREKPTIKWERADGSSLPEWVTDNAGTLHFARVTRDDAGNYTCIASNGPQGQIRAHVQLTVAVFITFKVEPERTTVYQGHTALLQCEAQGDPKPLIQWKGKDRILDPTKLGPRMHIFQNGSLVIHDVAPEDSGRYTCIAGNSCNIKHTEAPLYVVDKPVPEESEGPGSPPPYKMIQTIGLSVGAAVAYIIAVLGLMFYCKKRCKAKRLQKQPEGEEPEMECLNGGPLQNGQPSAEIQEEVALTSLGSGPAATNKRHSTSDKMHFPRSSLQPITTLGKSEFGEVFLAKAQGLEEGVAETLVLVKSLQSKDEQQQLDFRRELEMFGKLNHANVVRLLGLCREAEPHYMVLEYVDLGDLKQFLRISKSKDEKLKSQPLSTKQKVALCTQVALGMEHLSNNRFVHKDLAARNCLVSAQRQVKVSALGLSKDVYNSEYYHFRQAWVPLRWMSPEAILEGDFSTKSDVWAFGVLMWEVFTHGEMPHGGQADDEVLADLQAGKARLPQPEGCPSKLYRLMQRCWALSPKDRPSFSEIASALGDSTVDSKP
# T2: His-tagged human PTK7 protein (human, UniProt Q13308 31-704)
# T2 construct: Bought protein; also called hPTK7-His; not shown: His tag
# T2 sequence: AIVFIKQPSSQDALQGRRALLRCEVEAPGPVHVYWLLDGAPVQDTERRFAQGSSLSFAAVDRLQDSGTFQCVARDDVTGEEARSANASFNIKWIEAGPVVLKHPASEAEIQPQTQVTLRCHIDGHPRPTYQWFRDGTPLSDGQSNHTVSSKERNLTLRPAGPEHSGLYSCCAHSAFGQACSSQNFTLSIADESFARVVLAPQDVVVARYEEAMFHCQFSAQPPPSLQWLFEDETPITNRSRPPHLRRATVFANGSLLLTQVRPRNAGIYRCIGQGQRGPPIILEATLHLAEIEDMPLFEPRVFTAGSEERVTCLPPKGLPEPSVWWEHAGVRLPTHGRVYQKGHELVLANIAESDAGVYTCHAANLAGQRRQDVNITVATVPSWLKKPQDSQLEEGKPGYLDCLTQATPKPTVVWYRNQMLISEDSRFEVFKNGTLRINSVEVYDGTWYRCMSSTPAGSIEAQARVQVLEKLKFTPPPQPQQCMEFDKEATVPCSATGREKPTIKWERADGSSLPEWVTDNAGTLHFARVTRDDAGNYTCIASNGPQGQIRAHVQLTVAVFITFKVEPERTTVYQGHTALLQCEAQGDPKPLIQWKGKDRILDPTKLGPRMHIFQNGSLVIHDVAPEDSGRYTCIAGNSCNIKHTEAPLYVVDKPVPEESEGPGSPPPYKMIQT
# What was measured:
# [1] = molecular target: T1, human PTK7 on human cancer cell lines; assay: flow cytometry, HCT116 cells, Ab 5 ug/mL
# Description: (§1) The binding activity of anti-PTK7 antibodies to cancer cell lines was verified by flow cytometry. […] Purified anti-PTK7 antibody with a concentration of 5 μg/mL was added to each well and was incubated at 4° C. for 30 minutes. […] The cells were collected, and the mean fluorescence intensity (MFI) was determined. Human IgG1 was used as ISO control.
# [2] = molecular target: T1, human PTK7 on human cancer cell lines; assay: flow cytometry, NCI-H226 cells, Ab 5 ug/mL
# Description: as §1
# [3] = molecular target: T2, His-tagged human PTK7 protein; assay: BLI Octet binning on hPTK7-His; competitor 2A5
# Description: (§2) Relative positions of target protein epitope between a pair of purified anti-PTK7 antibodies were analyzed by Biolayer Interferometry (BLI) using ForteBio Octet system at 30° C. A total of […] purified antibodies were used: 1A7, 1A11, 1F2, 2A5, 2D11, 2F5, 3C4 and 3E6.
# (§3) 1×HBS-EP+ buffer (10 mM 4-(2-hydroxyethyl)-1-piperazineethanesulfonic acid (HEPES), 150 mM NaCl, 3 mM ethylenediaminetetraacetic acid (EDTA) and 0.05% P20, pH7.4) diluted from HBS-EP+ buffer (10×) was used as the running buffer throughout the experiment. His-tagged human PTK7 protein was captured at a flow rate of 10 μL/min, and 200 nM of antibody (Analyte 1) was injected at a flow rate of 30 μL/min to bind the ligand. Another antibody (Analyte 2) was injected under the same conditions to determine whether the binding of different antibodies interfered with each other. The binding time was 300 s for each antibody.
# (§4) The binding value of each antibody was obtained using Data Analysis HT 12.0. To quantify the interference of one antibody binding to another, a binding ratio was calculated to compare each pair of antibodies. The binding ratio is defined as the binding value of the second antibody (Analyte 2), divided by the binding value of the first antibody (Analyte 1). […] In general, antibody pairs that interfere with each other have the same or overlapping epitopes.
# [4] = molecular target: T2, His-tagged human PTK7 protein; assay: BLI Octet binning on hPTK7-His; competitor 3C4
# Description: as §2, §3, §4
Binder,MFI [1],MFI [2],binding ratio [3],binding ratio [4]
"3C4 (antibody, V domains shown, also called anti-PTK7 antibody 3C4) VH: QVQLEQSRAEVKKPGESLRISCKGSGYSFTSYWISWVRQMPGKGLEWMGRIDPSDSYTNYNPSFQGHVTISADKSISTAYLQWSSLKASDTAMYYCARRDGSYFDFDYWGQGTLVTVSS VL: not shown",230000,167000,0.93,0.16
"1A11 (antibody, V domains shown, also called anti-PTK7 antibody 1A11) VH: QVQLVQSGPGLVKPSETLSLTCTVSGGSINSYYWNWIRQPPGKGLEWIGYIYYSGSTNYNPSLKSRVTISVDTSKNQFSLKLSSVTAADTAVYYCARDPHDYIRGHFDLWGRGTLFTVSS VL: not shown",260000,152000,0.75,0.67
"1A7 (antibody, human IgG1, V domains shown, also called anti-PTK7 antibody 1A7) VH: QVQLVESGGGVVQPGRSLRLSCAASGFTFSNYGMHWVRQAPGKGLEWVAVIYYDGSNKFYADSVKGRFTISRDNSKNTLYLQMSSLRAEDTAVYYCARDVAPPGSRAEYFHHWGQGTLVTVSS VL: not shown",115000,80200,0.1,0.66
"1F2 (antibody, V domains shown, also called anti-PTK7 antibody 1F2) VH: QVQLVQSGGGLVQPGGSLRLSCAASGFTFSRYEMNWVRQAPGKGLEWVSYINSIGSAINYADSVKGRFTISRDNAKNSLYLQMRSLRAEDTAVYYCVREDNWNPGYWGQGTLVTVSS VL: not shown",149000,94900,0.71,0.48

# Further lines, results first:
MFI [1],MFI [2],binding ratio [3],binding ratio [4],Binder
339000,193000,0.81,0.11,"3E6 (antibody, V domains shown, also called anti-PTK7 antibody 3E6) VH: QVQLVESGAEVKKPGESLRISCRGSGYSFTSYWISWVRQMPGKGLEWMGRIDPSDSYTKYSPSFQGHVTISADKSISTAYLQWSSLKASDTAMYYCARRDGDYFDFDYWGQGTLVTVSS VL: not shown"
234000,141000,0.05,0.62,"2A5 (antibody, V domains shown, also called anti-PTK7 antibody 2A5) VH: QVQLVQSGGGVVQPGRSLRLSCAASGFTFSNYGMHWVRQAPGKGLEWVAVIWYDGRNKYYADSVKGRFTISRDNSKNTLYLQMNSLRAEDTAVYYCARDVAPAGSRAEYFQNWGQGTLVTVSS VL: not shown"
287000,180000,0.15,0.81,"2D11 (antibody, V domains shown, also called anti-PTK7 antibody 2D11) VH: QVQLVESGGGVVQPGRSLRLSCAASGFTFSSYGMHWVRQAPGKGLEWVAVIFYDGSNKYYADSVKGRFTISRDNSKNTLYLQMNSLRAEDTSVYYCARDVAAPGSRAEYFQNWGQGTLVTVSS VL: not shown"
133000,80900,0.12,0.71,"2F5 (antibody, V domains shown, also called anti-PTK7 antibody 2F5) VH: QVQLVESGGGVVQPGRSLRLSCVASGFTFSNYGMHWVRQAPGKGLEWVAIIYYDGSNKYYADSVKGRFTISRDNSKNTLYLQMNSLRAEDTAVYYCARDVAAAGSRAEYLHHWGQGTLVTVSS VL: not shown"
